Results published in the supplement of paper PMC9170038.

Tested on: MS2 coat protein
Assay: apparent KD of MS2 coat protein; designed switch direction (-1 OFF switch, 1 ON switch): -1; higher = weaker reporter binding
In short: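 Designed RNA switches were transcribed on Illumina chips by stalled E. coli RNA polymerase and titrated with SNAP-549-labelled MS2 coat protein from 0.7 or 1.5 nM, doubling to 3 µM. Step length ran from 0.8–1.5 h at the lowest concentration to 10–20 min at the highest. The apparent KD is the median over clusters for each design, from curve-fitted normalised cluster fluorescence.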

[1] = input ligand: microRNA oligo, concentration not stated
[2] = Eterna round: R95, input ligand: FMN 200 uM
[3] = Eterna round: R95, input ligand: microRNA oligo, concentration not stated
[4] = Eterna round: R95, input ligand: none

## AGUUGGGCAGGAUAUACAUGAGGAUCACCCAUGUGAGAAAUACUAGUGAGGUCGAUUAGUAGAAGGGCCUGACA [Mat - Exclusion 3 - Eli Mod - D30] (Eterna round: R97, puzzle: Exclusion 3)
Input ligand: FMN 200 uM
  apparent KD of MS2 coat protein: 244 nM
Input ligand: none
  apparent KD of MS2 coat protein: 31.2 nM

## AUAAAACAUGAGGAUCACCCAUGUCAGGAUAUACGACUCCAACCAAACUGCUUGGACCGUAGAAGGGACAAGGG [Exclusion 1 (MOD2 Esqu)] (Eterna round: R97, puzzle: Exclusion 1)
Input ligand: FMN 200 uM
  apparent KD of MS2 coat protein: 140 nM
Input ligand: none
  apparent KD of MS2 coat protein: 277 nM

## AUAAAGCAAGCAUGGUCCCACAUGAGGAUCACCCAUGUGUUCGUCUUAUAGGCUGCUGAGGCUUUUGCCUCGGUGGC [LRO Sensor-off var1-07 loose mod of D91 from Mat747] (Eterna round: R97, puzzle: Sensor, turn-off variant 1)
Input ligand: FMN 200 uM
  apparent KD of MS2 coat protein: 155 nM
Input ligand: none
  apparent KD of MS2 coat protein: 179 nM

## AUAAAUCAUGUAGGAUAUGCGUGGCAAAGCUAUGCAGAAGGACAUGAGGAUCACCCAUGUGCUUCCGUCUGAGAACAGACGGUA [Mat - Exclusion NG 1 - Mod of JL - D24] (Eterna round: R96, puzzle: Exclusion NG 1)
Input ligand: FMN 200 uM
  apparent KD of MS2 coat protein: 130 nM
[1]
  apparent KD of MS2 coat protein: 61.6 nM
Input ligand: none
  apparent KD of MS2 coat protein: 82.3 nM

## AUAACAAGCUUUUUGUUCGUAGAACAUGACGCUCGAGUCACAUGAGGAUCACCCAUGUCAUCCAGAUUGAUAGUUGA [JR_SV3TOV2_Sub059] (puzzle: Sensor v3, turn-off variant 2)
[2]
  apparent KD of MS2 coat protein: 35.5 nM
[3]
  apparent KD of MS2 coat protein: 47.3 nM
[4]
  apparent KD of MS2 coat protein: 44.3 nM

## AUAAGGCUAGGAUAUGCAUGUGGCACAGCUCAGAAAAUAAGACAUGAGGAUCACCCAUGUAGAAGGAGCAUGCC [EX2 A.30] (Eterna round: R97, puzzle: Exclusion 2)
Input ligand: FMN 200 uM
  apparent KD of MS2 coat protein: 19.4 nM
Input ligand: none
  apparent KD of MS2 coat protein: 16.2 nM

## AUAAUAAAGGAGGAUAUCGUUACGGAAACGUAACGAGAAGGUCUAACAUGAGGAUCACCCAUGUUCCUCAAAUA [Mat - Exclusion 6 - Eli Mod - D53] (puzzle: Exclusion 6)
[2]
  apparent KD of MS2 coat protein: 49.9 nM
[3]
  apparent KD of MS2 coat protein: 36.4 nM
[4]
  apparent KD of MS2 coat protein: 37.4 nM

## AUAAUGUAAGGAUAUCAGUCGUAAUUUAAUUUAAUAUCGACUGAGAAGGUACAUGAGGAUCACCCAUGUGGUCA [E4/9-B2] (Eterna round: R97, puzzle: Exclusion 4)
Input ligand: FMN 200 uM
  apparent KD of MS2 coat protein: 148 nM
Input ligand: none
  apparent KD of MS2 coat protein: 574 nM

## AUAAUUUAAGUGAGGAUAUACCUAUGGAAACAUAGGUAGAAGGCACAUGAGGAUCACCCAUGUUCCUAUACAAA [Fiskers BMX 4 - 1] (puzzle: Brourd's mod of Exclusion 4)
[2]
  apparent KD of MS2 coat protein: 16.5 nM
[3]
  apparent KD of MS2 coat protein: 12.7 nM
[4]
  apparent KD of MS2 coat protein: 9.08 nM

## AUAAUUUAAGUGAGGAUAUACCUAUGGAAACAUAGGUAGAAGGCACAUGAGGAUCACCCAUGUUUUUACACAAA [Fiskers BMX 4 - 2] (puzzle: Brourd's mod of Exclusion 4)
[3]
  apparent KD of MS2 coat protein: 18.1 nM

## AUACCACGAGGAUAUCGUCUAUAUUACAUGAGGAUCACCCAUGUUAUAUUUGUAAUGUUUCGAGAAGGCGUGUUUU [JR_E5_Sub081] (puzzle: Exclusion 5)
[3]
  apparent KD of MS2 coat protein: 14.4 nM

## AUACCAUGCCGCCUAAUAGCUUUUUGCUCGUCUUAUAAAACAUGAGGAUCACCCAUGUAAAACAUGUGGCGUGACCC [Maridi] (Eterna round: R96, puzzle: Sensor v3, turn-off variant 2)
Input ligand: FMN 200 uM
  apparent KD of MS2 coat protein: 422 nM
[1]
  apparent KD of MS2 coat protein: 52.9 nM
Input ligand: none
  apparent KD of MS2 coat protein: 329 nM

## AUACCAUGCCGCCUAAUAGCUUUUUGCUCGUCUUAUAAAACAUGAGGAUCACCCAUGUAAAACAUGUGGCGUGACCC [Maridi] (puzzle: Sensor v3, turn-off variant 2)
[2]
  apparent KD of MS2 coat protein: 163 nM
[3]
  apparent KD of MS2 coat protein: 12.5 nM
[4]
  apparent KD of MS2 coat protein: 97.4 nM

## AUACCCAGAGGAUAUGCCGCUGGGUGCCCUCUGCAUAAAACACUUGAGGAUCACCCAAGUAGAAGGCUGGGCUC [Leiseses] (Eterna round: R97, puzzle: Exclusion 2)
Input ligand: FMN 200 uM
  apparent KD of MS2 coat protein: 173 nM
Input ligand: none
  apparent KD of MS2 coat protein: 78.1 nM
